The supplement of paper PMC9170038

System: MS2 coat protein
Assay: apparent KD of MS2 coat protein; designed switch direction (-1 OFF switch, 1 ON switch): -1; higher = weaker reporter binding
In short: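 Designed RNA switches were transcribed on Illumina chips by stalled E. coli RNA polymerase and titrated with SNAP-549-labelled MS2 coat protein from 0.7 or 1.5 nM, doubling to 3 µM. Step length ran from 0.8–1.5 h at the lowest concentration to 10–20 min at the highest. The apparent KD is the median over clusters for each design, from curve-fitted normalised cluster fluorescence.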

[1] = input ligand: microRNA oligo, concentration not stated

| Sequence | apparent KD of MS2 coat protein (input ligand: FMN 200 uM) [nM] | apparent KD of MS2 coat protein [1] [nM] | apparent KD of MS2 coat protein (input ligand: none) [nM] | apparent KD of MS2 coat protein (Eterna round: R95, input ligand: FMN 200 uM) [nM] | apparent KD of MS2 coat protein (Eterna round: R95, input ligand: microRNA oligo, concentration not stated) [nM] | apparent KD of MS2 coat protein (Eterna round: R95, input ligand: none) [nM] |
| --- | --- | --- | --- | --- | --- | --- |
| ACAUGAGGAUCACCCAUGUCAACGAAAAGGCUCAUGUAGAGUGAGGAUAUGUGAGACGAACGAGAACAGAAGGCACAAGACAGG [Deportation 3 - Jieux - Exclusion NG 3] (Eterna round: R96, puzzle: Exclusion NG 3) | 31.8 | 16.6 | 38.4 | – | – | – |
| UUUGUACAUGAGGAUCACCCAUGUCAGGAUAUGUCAUCGCCGUCUGCCAGACGGCGUCACAGAAGGGACAUGCA [EX1 C.16] (Eterna round: R97, puzzle: Exclusion 1) | 104 | – | 34.1 | – | – | – |
| AAAAAGGCAGGAUAUACGAGUCAAAGAAAAGACAAAAAGGGACAUGAGGAUCACCCAUGUAGAAGGGCCAAAAA [Fiskers exclusion D2 62% 4] (Eterna round: R96, puzzle: Exclusion 2) | – | 31.9 | – | – | – | – |
| CCUUAGUUAGGAUAUCGGAUUGUUCACGGUGCUCACCGGGUCGAGAAGGAACAUGAGGAUCACCCAUGUCACGA [Eternabot (L1) Solution 72] (Eterna round: R97, puzzle: Exclusion 4) | 60.1 | – | 42.5 | – | – | – |
| UAUUAAACAAGCAGGUCCCACAUGAGGAUCACCCAUGUGCUCGUCUUAUAAGGUACUGUGAUGAAAGUUACGGUACC [Elimod 17 - Jieux - Sensor, turn-off variant 1] (Eterna round: R97, puzzle: Sensor, turn-off variant 1) | 36.4 | – | 46.2 | – | – | – |
| GAGCCACAUGAGGAUCACCCAUGUGAGGAUAUCAUGCUUCGUAGUAAACUACGAAGUGUGAGAAGGCACAAUGG [Omei Ex1 C5] (Eterna round: R97, puzzle: Exclusion 1) | 233 | – | 99.7 | – | – | – |
| GCACGGAGUGUAGGAUAUCUGUGCGAUUAGCUCAGAGAAGGACACAUGAGGAUCACCCAUGUGUACCUCAACACUAAUCCGUGC [Eli exng1 - 076] (Eterna round: R96, puzzle: Exclusion NG 1) | 10.5 | 8.88 | 10.1 | – | – | – |
| UCGCGAAGAGGAUAUACAUAGAAAUAGAUUCAUGUAAAACUACAUGAGGAUCACCCAUGUAGAAGGCUUUGCGU [Mat - Exclusion 2 - JL Mod - D60] (Eterna round: R97, puzzle: Exclusion 2) | 108 | – | 17 | – | – | – |
| CCAAGCUUUUUCCUUAACAACAUGAGGAUCACCCAUGUGUAAGCUAUUCGGUUUGGGCUCUUUAGUGCUCGUCUUAU [malcom mod] (Eterna round: R97, puzzle: Sensor, turn-off variant 1) | 19.2 | – | 19.7 | – | – | – |
| AGUAGGUCUACCUUGGUGGAUCUGCAUAAUGCAAGUGUUACAUGAGGAUCACCCAUGUCCUCAUUUGCUCGUCUUAU [JL turnoff v2 99.22] (puzzle: Sensor v3, turn-off variant 2) | – | – | – | 39.4 | 105 | 43.5 |
| UAAGAUUACCGAGGAUAUGGUGGUUUCUAUUAACCAGAAGGCGGACUCAACAUGAGGAUCACCCAUGUAUAAAGGGUAUUAGAU [Ex NG1 #8] (Eterna round: R96, puzzle: Exclusion NG 1) | 134 | 112 | 144 | – | – | – |
| AAUUAUUUUUGAGGAUAUGGUGGUGAAACACCACCAGAAGGCGAGAUAAACAUGAGGAUCACCCAUGUGAGCCUGAUGCUUAUG [Ex NG1 #49] (Eterna round: R96, puzzle: Exclusion NG 1) | 29.2 | 12.6 | 17.2 | – | – | – |
